The test concerns the target human c-Met on the surface of human tumor cells (human) (UniProt P08581). The test is described as follows: FACS on tumor cells (cell line not named on the sheet), PE-labelled isotype control, FL2 Log; unstained cells 3.48.

Among the data in patent US20140349310A1 are Mean fluorescence values, retold here.

Chain of human c-Met on the surface of human tumor cells (human) (P08581 25-1390): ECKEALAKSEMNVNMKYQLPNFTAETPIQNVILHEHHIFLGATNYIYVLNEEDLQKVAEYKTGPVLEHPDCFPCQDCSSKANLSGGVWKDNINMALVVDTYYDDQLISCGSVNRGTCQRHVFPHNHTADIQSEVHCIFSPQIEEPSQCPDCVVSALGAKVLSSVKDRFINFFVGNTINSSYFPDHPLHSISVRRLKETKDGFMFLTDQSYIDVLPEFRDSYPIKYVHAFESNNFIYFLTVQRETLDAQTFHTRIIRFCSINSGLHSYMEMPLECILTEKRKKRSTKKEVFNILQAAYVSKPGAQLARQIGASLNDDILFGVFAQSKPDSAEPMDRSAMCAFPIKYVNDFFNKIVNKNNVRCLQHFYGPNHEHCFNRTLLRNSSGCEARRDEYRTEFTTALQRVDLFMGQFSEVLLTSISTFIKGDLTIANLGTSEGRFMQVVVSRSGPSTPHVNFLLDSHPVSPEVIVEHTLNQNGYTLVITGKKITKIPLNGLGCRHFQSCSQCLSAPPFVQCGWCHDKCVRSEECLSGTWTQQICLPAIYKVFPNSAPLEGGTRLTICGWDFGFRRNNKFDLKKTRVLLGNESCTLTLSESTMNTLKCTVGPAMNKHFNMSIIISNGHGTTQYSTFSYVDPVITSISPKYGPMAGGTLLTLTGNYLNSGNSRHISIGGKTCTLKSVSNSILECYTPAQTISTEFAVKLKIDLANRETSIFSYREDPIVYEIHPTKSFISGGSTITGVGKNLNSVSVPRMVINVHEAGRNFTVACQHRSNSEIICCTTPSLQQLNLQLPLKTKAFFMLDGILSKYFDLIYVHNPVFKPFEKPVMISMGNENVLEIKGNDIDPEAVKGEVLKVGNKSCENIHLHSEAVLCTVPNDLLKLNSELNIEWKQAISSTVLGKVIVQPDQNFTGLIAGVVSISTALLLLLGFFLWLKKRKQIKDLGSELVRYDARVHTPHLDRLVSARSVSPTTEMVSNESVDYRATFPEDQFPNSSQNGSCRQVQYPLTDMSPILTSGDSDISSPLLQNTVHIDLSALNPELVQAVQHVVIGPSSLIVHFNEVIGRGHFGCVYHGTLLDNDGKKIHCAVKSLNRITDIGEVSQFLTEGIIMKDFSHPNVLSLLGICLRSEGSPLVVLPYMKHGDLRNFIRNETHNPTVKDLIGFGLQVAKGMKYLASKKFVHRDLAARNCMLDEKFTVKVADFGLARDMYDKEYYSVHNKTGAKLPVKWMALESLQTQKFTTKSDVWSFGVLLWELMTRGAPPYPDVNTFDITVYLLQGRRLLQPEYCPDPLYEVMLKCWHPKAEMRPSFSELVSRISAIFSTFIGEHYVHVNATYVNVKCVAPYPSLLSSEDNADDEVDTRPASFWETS

mIgG1-PE (antibody): the Mean fluorescence stood at 6.47.
